Reference: US12083165B2, “Thymosin alpha 1 for use in treatment of cystic fibrosis” (SciClone Pharmaceuticals International (SG) PTE. LTD., priority 2015, dated 2024)

What was measured:
ΔF508 CFTR [1] = molecular target: T1, ΔF508 CFTR (Homo sapiens, UniProt P13569, DEL508-508); test: CFTR immunoblot (mature C / immature B band) in CFBE41o− cells stably expressing ΔF508 CFTR; format: cell-based
Procedure: Cells. Cell Lines and Cell Culture—Human bronchial epithelial (HBE) cells, homozygous for the […] mutation and its isogenic wild-type were obtained from lung transplants (CF patients) or lung resections (non-CF patients) (kindly provided by L J Galietta within the Italian Cystic Fibrosis Foundation). Cells were maintained at 37° C. in a humidified incubator in an atmosphere containing 5% CO2, and the experiments were done 5 days after plating (21, 22). Stable lentiviral-based transduction of the parental CFBE41o− cells (ΔF508/ΔF508), originally immortalized and characterized by Dr. D. Gruenert and co-workers (32) with either WT-CFTR or ΔF508-CFTR, was performed by Tranzyme, Inc. (Birmingham, AL). The transduced CFBE41o− cells were maintained in minimum Eagle's medium supplemented with 50 units/ml penicillin, 50 μg/ml streptomycin, 2 mM L-glutamine, 10% fetal bovine serum, and 1 μg/ml blasticidine (WT-CFTR) or 2 μg/ml puromycin (ΔF508-CFTR) in a 5% CO2, 95% air incubator at 37° C. The parental CFBE41o− cells were maintained under the same culture conditions but without blasticidine or puromycin. To establish polarized monolayers, CFBE41o− cells were seeded on 24-mm-diameter Transwell permeable supports ([…] pore size; Corning Corp., Corning, NY) at 2×10^6 and grown in air-liquid interface culture at 37° C. for 6-9 days and then at 27° C. for 36 hours. Cells were incubated with Tα1 100 ng/ml (CRIBI Biotechnology, Padova, see below), 3 μM VX-809 (Lumacaftor, Aurogene Rome, Italy), 1 μM VX-770 (Ivacaftor, Aurogene) alone or in combination for 24 hours before the assessment of CFTR protein expression and function. DMSO vehicle alone (0.1%, v/v) for 24 h was used as a control.
CFTR Immunoblot Analysis. Immunoblot techniques using the anti-CFTR antibody (clone CF3, Abcam) were used to measure CFTR maturation in FRT, HEK-293, or HBE cells expressing CFTR or F508del-CFTR (34). After incubation, cells were harvested in ice-cold D-PBS solution (without calcium and magnesium) and pelleted at 1,000×g at 4° C. Cell pellets were lysed in 1% Nonidet P-40, 0.5% sodium deoxycholate, 200 mM NaCl, 10 mM Tris, pH 7.8, and 1 mM EDTA plus protease inhibitor mixture (1:250; Roche) for 30 min on ice. Lysates were spun for 10 min at 10,000×g at 4° C. to pellet nuclei and insoluble material. […] LiteAblotPlus chemiluminescence substrate (Euroclone S.p.A.), using ChemiDoc™ XRS+ Imagig system (Bio-Rad Laboratories) and blot quantification was obtained by densitometry image analysis using Image Lab 3.1.1 software (Bio-Rad).
The SV40 transformed CF airway epithelial cell line (CFBE41o−), homozygous for the ΔF508-CFTR mutation, was used (32). […] CFTR bands were quantified by densitometry and expressed as the C/B ratio. […]

ΔF508 CFTR [2] = molecular target: T1, ΔF508 CFTR; test: Chloride permeability by SPQ fluorescence assay upon forskolin stimulation, CFBE41o− cells; format: cell-based
Procedure: Cells. Cell Lines and Cell Culture—Human bronchial epithelial (HBE) cells, homozygous for the […] mutation and its isogenic wild-type were obtained from lung transplants (CF patients) or lung resections (non-CF patients) (kindly provided by L J Galietta within the Italian Cystic Fibrosis Foundation). Cells were maintained at 37° C. in a humidified incubator in an atmosphere containing 5% CO2, and the experiments were done 5 days after plating (21, 22). Stable lentiviral-based transduction of the parental CFBE41o− cells (ΔF508/ΔF508), originally immortalized and characterized by Dr. D. Gruenert and co-workers (32) with either WT-CFTR or ΔF508-CFTR, was performed by Tranzyme, Inc. (Birmingham, AL). […]
The activity of Tα1, either alone or in combination with ivacaftor, has been comparatively assessed with that of lumacaftor on CFBE41o− cells expressing ΔF508 CFTR and on HBE cells from CF patients. To this purpose, cells were treated with Tα1 (100 ng/ml), VX-770 (1 μM) or VX-809 (3 μM) alone or in combination for 24 hours and assessed for CFTR protein expression and function. […] In terms of ion channel activity, Tα1, either alone or in combination with ivacaftor, increased the chloride permeability of ΔF508 CFTR cells between 60 to 70% relative to control (considering WT control as 100% reference value)(B, assessed by a fluorescence assay upon stimulation with fosforkolin, Fsk). […]

T1 sequence (P13569 with tags, fused parts or gaps DEL508-508): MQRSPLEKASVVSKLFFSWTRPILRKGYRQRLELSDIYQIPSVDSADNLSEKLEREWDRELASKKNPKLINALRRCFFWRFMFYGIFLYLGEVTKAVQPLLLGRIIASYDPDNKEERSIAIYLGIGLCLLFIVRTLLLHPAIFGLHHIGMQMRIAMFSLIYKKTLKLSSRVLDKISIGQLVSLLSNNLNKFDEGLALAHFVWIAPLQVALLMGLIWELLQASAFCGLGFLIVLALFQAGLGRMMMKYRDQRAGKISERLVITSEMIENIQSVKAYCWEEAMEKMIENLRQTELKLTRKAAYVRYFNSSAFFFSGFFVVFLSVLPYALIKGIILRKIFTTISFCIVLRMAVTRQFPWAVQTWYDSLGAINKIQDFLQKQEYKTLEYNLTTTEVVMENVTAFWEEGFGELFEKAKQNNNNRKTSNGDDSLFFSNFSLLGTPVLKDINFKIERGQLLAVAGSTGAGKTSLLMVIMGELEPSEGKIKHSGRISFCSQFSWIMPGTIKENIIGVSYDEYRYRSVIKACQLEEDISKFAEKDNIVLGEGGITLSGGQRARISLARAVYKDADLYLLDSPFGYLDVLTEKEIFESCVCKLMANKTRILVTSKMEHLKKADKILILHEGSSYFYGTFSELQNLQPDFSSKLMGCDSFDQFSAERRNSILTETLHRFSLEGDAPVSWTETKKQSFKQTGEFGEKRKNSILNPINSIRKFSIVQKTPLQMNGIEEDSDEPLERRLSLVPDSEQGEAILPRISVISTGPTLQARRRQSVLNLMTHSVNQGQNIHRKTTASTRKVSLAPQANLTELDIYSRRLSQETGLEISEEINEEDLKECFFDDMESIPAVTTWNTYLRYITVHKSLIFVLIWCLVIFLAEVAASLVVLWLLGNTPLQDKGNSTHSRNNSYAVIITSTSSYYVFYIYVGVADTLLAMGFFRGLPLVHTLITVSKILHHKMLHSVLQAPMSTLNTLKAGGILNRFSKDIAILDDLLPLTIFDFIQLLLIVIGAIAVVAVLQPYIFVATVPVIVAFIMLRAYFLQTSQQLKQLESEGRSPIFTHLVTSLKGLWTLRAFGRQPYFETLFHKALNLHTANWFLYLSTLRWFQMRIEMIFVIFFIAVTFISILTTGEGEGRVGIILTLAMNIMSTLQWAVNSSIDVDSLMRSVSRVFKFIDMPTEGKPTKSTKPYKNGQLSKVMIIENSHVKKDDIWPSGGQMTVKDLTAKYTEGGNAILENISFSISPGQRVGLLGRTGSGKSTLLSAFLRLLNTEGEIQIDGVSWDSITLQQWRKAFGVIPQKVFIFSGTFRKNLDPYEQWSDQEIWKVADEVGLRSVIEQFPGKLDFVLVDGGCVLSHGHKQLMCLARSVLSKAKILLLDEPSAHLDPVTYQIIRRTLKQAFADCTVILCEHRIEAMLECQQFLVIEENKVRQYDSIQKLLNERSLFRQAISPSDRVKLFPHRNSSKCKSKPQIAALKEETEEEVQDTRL

Ac-Ser-Asp-Ala-Ala-Val-Asp-Thr-Ser-Ser-Glu-Ile-Thr-Thr-Lys-Asp-Leu-Lys-Glu-Lys-Lys-Glu-Val-Val-Glu-Glu-Ala-Glu-Asn-O (Ac-SDAAVDTSSEITTKDLKEKKEVVEEAEN-OH; not fully specified; printed as Ac-Ser-Asp-Ala-Ala-Val-Asp-Thr-Ser-Ser-Glu-Ile-Thr-Thr-Lys-Asp-Leu-Lys-Glu-Lys-Lys-Glu-Val-Val-Glu-Glu-Ala-Glu-Asn-O; listed as Homo sapiens) [Tα1, naturally occurring polypeptide of 28 amino acid; supplied as purified sterile, lyophilized, acetylated polypeptide]
cellular expression of ΔF508 mature CFTR (band C, C/B ratio) (ΔF508 CFTR [1]; 100 ng/ml Tα1, from 30 mins until 24 hours, CFBE41o− cells expressing ΔF508 CFTR): persistently increased | expression of the mature form (C) relative to the immature form (B) of CFTR (ΔF508 CFTR [1]; ΔF508-transfected cells, 24 hours, Tα1 100 ng/ml, VX-770 1 μM, VX-809 3 μM alone or in combination): increased | chloride permeability of ΔF508 CFTR cells relative to control (WT control as 100%) (ΔF508 CFTR [2]; 100 ng/ml Tα1 for 24 hours, CFBE41o− cells, forskolin stimulation): approximately 70% | ion channel activity compared to lumacaftor (ΔF508 CFTR [2]; CFBE41o− cells expressing ΔF508 CFTR, 24 hours): lower
